Our source for the protein production values is a protein production outcome set (Wang et al. 2014).

The series is described as follows: label from the status in PepcDB records.
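Also: failed if final PepcDB status was selected cloned or expressed and not failed if soluble or beyond.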

For “MLDVAPPVITPRGTKIEPSAGAPFEAVRVARDVLHTSRTAALATLDPVSGYPYTTATNIGIEPDGTPFFFAAGLTLHARNMETDARISVTLAPFGKGDALTLPRLTLVGRADRIGPDEVPLAIARYIARYPKAKLYLSLPDTRLYRLRTEGVQINGGPARNASNITPADLRTDLSGAEELMAAAESEATRLNAIKGEASRLAVLAGAKTGRWKITSIDPDGIDLASASDLARLWFAERVETLKQFEKALAQLLK”, the protein production result is “not failed”.
Then “MLEKVEEWIKARGLTWRLLIMQKPTRTVAEAAALLGVSESEIVKTLIVLDNAGGVYAVVIPGDKRLNINSMKELAGKPVRLARANEVVELTGYPVGGVPPVALPPNIVLVVDRILLSRKKVYGGGGRENALLEFSPRELVEATGAVVADVSE”, with “not failed”; and “MLELCSIASGSSGNCICVGTDDCHVLIDAGISGKKIENGLNEFDMTATDMHGILVTHEHIDHIAGLGVMARRYHMPIYATKATIGAIKCTKSVGNIDDELFHPIEAGVDFTIGDIEFEPLHISHDAADPVAYRFKNENHAMAVVTDLGTYDDALVSKLQNLDGLLLEANHDINMLQTGAYPYPLKRRIMGDSGHLSNERSGQLLCELLHDKFGSVILGHLSKENNYEKLAYEAVRLEVTMGDNPYKASDFPMYVAKRDRASDRIAVE”, with “failed”.
To “MLELRPARAADVPAIAAMHAASWRASYRGILPDDYLDRYAADERLSLWRRRFETASPPWVRLACWDGEPVGFVCLLPEEAPELGVYLDNLHVLPGQQGRGIGRALMAAAAAEAERIAPGRPLYLWVYERNADACAAYDKMGGVVMARREVDTAAGTRAIALRYSWP” belongs “failed”.
Then “MLENSITYEKPLYIIKMNQRKKIVQIALPAMAENLLQMLMGVVDNYLVAQIGLVAVSGVSVANNIITIYQAIFIALGAAVSSLVAKSLGEDNQARVRFYQSESVAITLMLSVVLGFISFVFGSNMLHLLGTTDSVTQAGGIYLAIVGGLVVSLGLQTTLGAILRAQGKARLPMYVSFLTNIVNVILATTAIYIGHWGIVGVAAATVLSRFLGTFVLACQLPIKAILRSMRIKIDKAFLAIALPSAGERLMMRAGDVVIIAIIVKFGTAAVAGNAIGETLTQFNYMPGMGVATATVILVAHNLGQGKKKVIKEVVRESYIISTVFMLLVGACIFFGGRQLTYLFTENKAALQASLVVLFYSFIGGPATSGTLVFTAVWQGLGKAKLTFYATTVGMWLIRIVLGYYLGVSLNLGLAGVWLATLADNVFRWLFLYCLYRKYMQGFNNNLSSS”, with “failed”; and “MLERLKRIHYMFWISLIFMIFPILSVVTGWLSAWHLLIDILFVVAYLGVLTTKSQRLSWLYWGLMLTYVVGNTAFVAVNYIWFFFFLSNLLSYHFSVRSLKSLHVWTFLLAQVLVVGQLLIFQRIEVEFLFYLLVILTFVDLMTFGLVRIRIVEDLKEAQVKQNAQINLLLAENERSRIGQDLHDSLGHTFAMLSVKTDLALQLFQMEAYPQVEKELKEIHQISKDSMNEVRTIVENLKSRTLTSELETVKKMLEIAGIEVQVENHLDKSSLTQELESTASMILLELVTNIIKHAKASKVYLKLERTEKELILTVRDDGCGFASISGDELHTVRNRVFPFSGEVSVISQKHPTEVQVRLLYKERK”, with “failed”.
Turning to “MLETAALAAGMSWASGIRLYLAVLTAGVLARLGWLDLPPGLHVLESWWVIGIAGAMAAAEFVADKVPGFDTVWDGIQTFIRIPAGAILAAAAFGQLDPQWMVAAGLIGGTLAGTAHATKAGTRALINVSPEPFSNWVASFTEDITTAGGLLLAFFLPVVFLILLVLFLITAAWLLPKLWRGVRRLHAGLRGNADNQRP”, the protein production entry was “failed”.
Then “MLFEGLPCLAVWCKNRLSAVLPVGGLNVSENLLEIETHPFDPVLPPKAAVMMMGTFPPKEDKRAMQFHYPNFQNDMWRVYGLVFFNDAAHFQRLSEKAFDAEKIKAFLHERGIASCPTVLKAVRQHGNASDKFLKVVETVDLAAVLAKIPECRHICTTGGKATEILLDIQGGGIKMPKTGETVPFPFAGRDLTLTRLPSTSRAYPLSLAKKAAAYRAFFEMAGLCEKQLLEHHHHHH”, with “failed”; and “MLFEQIAANKRKTVFIILGFFIFVLMVGAAIGIIVWNNYLNGLILAAAIGAVYILIMVMSSSSVVMAMNHAKEVTSKEQAPVLWDTVESMAMVAGIPMPKVYIVEDPSPNAFATGISPEKGAVAVTRGLLNKLERYELEGVIAHEISHIRNYDIRLSTIAIALVAVIAILSDLAMRLIFWGSLTGGRNSRKSDNNNGGGAQIIIYVVALIFVILAPIIATAIQFALSRNREYLADASAVELTRNPDGLIQALQKISGDTKKMEEVSASSESIYFSSPLKSKKDKPGLFDSHPPISSRIERLENM”, with “failed”.
Then “MLFESINTGCLDGNDTPWMPFAPYSNDVMVKYFKIDPVRGETITLLKAPAGMEMPRHHHTGTVIVYTVQGSWRYKEHDWVAHAGSVVYETASTRHTPQSAYAEGPDIITFNIVAGELLYLDDKDNIIAVENWKTSMDRYLNYCKAHGIRPKDLSTFEG”, with “not failed”; and “MLFGGNRNKMLKTIITSAITYSSTAIDLLIILMLFFAKIKDKKGIRDIYIGQFLGSDVLILVSLFFAFILHYVPDKRLLGLLGIIPIFLGLKALIFGDSDGEKMANKELNNNNNKMNLIKTLMFITIVSCGADNIGLFVPYFISLTPLNLVITLIVFLIMIFLLVFVAQKLANVPTIGEVLEKYSRWFIGFVYIFIGGSVLIENGSIQFIINLFK”, with “failed”.
Then “MLFIAFAPFGAFALEANSKNDGYSLDDIKYYKIFENEDIPKIMYALRQGDFEIIAELKNEWEIEEEDVSFEYTTSKNPLGELIRDNLYELGQKYEVFEDESDFVSKMNVWATAFTKSMMKKSSEQKDKLIVQTVNALDNLDETLNLFSERLREWYSLYFPEMDNIVKKHDIYVSLVSEYGDREEYTRTKLKKTMPSNVARTISLAAKESMGADVSEFDLKIMKNLADEIKSMYEYRESLQEYLETSMNEIAPNLTKVAGASLGARLISLAGGIERLLRLPASTIQVIGAEKALFAHLRERALPPKHGVIFQHPLIQGSPWWIHGKIARAISCKISIAIRADAFGNDISDMLIEDMNKKVAEIKEKFPEPTRKRRPRPDTRSFGNKGGQDRDRRSQGDRKPSGNRGDSKKGGKPFGKKPAGKDDRRDNRKGDRKPFGGKPKNSGNQPPKERSGEKRRDSTKKVKAERKVIGKTSSQNLEHHHHHH”, with “not failed”; and “MLGAPAHRAASAAPVIRRTKGPDMPTRLTALLSPSRPSRPSRDDAAGPVAGTARPARGAGWATALSLALVCFVTYAALSVRLHQRMLTTGYDLGIFEQAVRSYAHGHLPVAELKGPGFPLLGDHFSPVLALLAPLYRVWPAPVTLLVAQAALFAVAVIPLARWAEEVRGRRAALVVGLGYGASWGVAQAVGFDFHEVCFAVPLLALSLTAVGRGRARAAALWALPLLLVKEDLGLTVAVVGLLIARTGERDDRRRGGALVLAGVLGSFLEMLVVIPAFNPGGTFAYSSSVPGAGSATPGAGELLLHYTVGLVTPDTKAQTVLALLSVTGFLAVRSPLLWAALPTLLWRFASDNQAYWGTGYHYSAVLMPVLFAAFVDALTRPGPVRYALAASAAVTVLLLPQFPLWQLTQPATWHTDSRLASARRLMDRIPDGATVAASNRLVPQLTNRARVSVFGLGGSRPDAEWIIDDSAQPQGWPIAPDDDRRLLSEVRNNGRYRTVADQDGYVLLQRRP”, with “failed”.
For the sequence “MLGEFKHYKTRLAHGGIPQEVQNLLLEYGVEIFAEMLVEGLSRIKRCTDEGRVLMSLDLQVLINGLQHFVPTKVKPKLQIVETFIKAYYLPETEYVHWARAHPEYTKAQVVGLVNLVATMKGWKRKTRLEVIEKIESASM”, the protein production result was “failed”.
Then “MLGKDYMLAIILVNCDDDLWGDHSLEVEAGLPPGWRKIHDAAGTYYWHVPSGSTQWQRPTWELGDAEDPGTGTEGIWGLRPPKGRSFSSLESSLDRSNSLSWYGGESYIQSMEPGAKCFAVRSLGWVEVPEEDLAPGKSSIAVNNCIQQLAQTRSRSQPPDGAWGEGQNMLMILKKDAMSLVNPLDHSLIHCQPLVHIRVWGVGSSKGRDRDFAFVASDKDSCMLKCHVFCCDVPAKAIASALHGLCAQILSERVEVSGDASCCSPDPISPEDLPRQVELLDAVSQAAQKYEALYMGTLPVTKAMGMDVLNEAIGTLTARGDRNAWVPTMLSVSDSLMTAHPIQAEASTEEEPLWQCPVRLVTFIGVGRDPHTFGLIADLGRQSFQCAAFWCQPHAGGLSEAVQAACMVQYQKCLVASAARGKAWGAQARARLRLKRTSSMDSPGGPLPLPLLKGGVGGAGATPRKRGVFSFLDAFRLKPSLLHMP”, with “not failed”; and “MLHDTPLITTIVAGLCLAFLLGMIASRLRISPLVGYLLAGVIVGPNTGGFRIDSGIINQLAEIGVILLMFGVGLHFSLKDLLSVKAIAIPAAIAQMAFSTFLGSCLGLIMGWGLSSSVVFGLALSTASTVILLRALQERHLIETEKGRIAVGWLIIEDLAMVLILVLIPSLANILGNTKKEAIDPLIQWLDLSIWGIFGLTILKVILFIILMLVIGRRVIPWLLKVSAHSGSRELFRLSVFATALGVAFGAAHLFGVSLSLGAFFAGMVMSESELSHRAAEESLPLRDAFSVLFFVSVGMLFDPGKILSHFFPLLATLFIIIIGKSAGAFFILKAFRYSNATACTISASLAQIGEFSFILAGLSLSLGLLNNDAHDFILGGAILSILVNPLIFIAFDKIKKHLENLPKNSQDTQKIIDIDPKDPDQEFLPMTSKTNHIVIIGYSRIGKCVALSLINRGDPVVIVEESKRLTDKAIADGFEVICGNIIKQDVMNAANMSNAYKVVITMCNTIEVGECIVNIRDMNKDIQIITHTLSDVDTAYLIDLGADIVVTDEEEIANGVIEHITGQRFIKNIAQS”, with “failed”.
As to “MLHLQTFGDLRLIETNGDAIRYPIKGLLMMAHLYAGASHELSRYELAQFLWNDVESELARLNLRKLLSRIRETDGGRAEIPFDFTATTVRLNTQAVSSDLDIFRAGGSPLERLNAIAELTQRGFIGNIKPATKLIEAWIRAQRDAQALQLRQALLDALPDAQKPGAARSISGAALQILERDPNDEQVRALLHQLSGGSSLSERLPNGDGHARVQVKRSEAGGETTADIERVSQAPLILPRLVLLPPTSKHADAGLALANALIEDVTIELCALRNISIVAPHTAGQIRRDSEKAAVVARHSIAYLLDTRLSEEGLFAQLVYFPTDEIIWANRFTMTPDILPRQRRLIAQQLTMSVARELAENEEERLRFEANPEAYHAYLVGSSLMSKLTLPHIRRARKAFKQSLSHKADFSPSFTGLARTFTSEWLVTAQGNNELLHLAEQNALRAIERDPASAAGHRELGVTKLYLGDVDASVAALDLAEQLSPHFADVIYSHADTLVHASRPGDALAKIRRAISLNPIAPDAYLWCAAGASFFLEQYEEAIAYVEAMKDKAPAHRIAAASCAMIGDRKRALFHRQRAESINPVFDVEKWLAIVPFKEDWQKELYREGLLKAGF”, the protein production result is “failed”.
Then “MLIDKKTQAGVKSIIGWQHCAHFYRQNKLLGLFTKIKRPTKGQRMEEELKQQFDEMGVEPADAVLGRCAELAITYNIHDATEFVEQWMAFSLSHLQGEDPAIENLGDFERKVLQLRKDKAGYKATGQKAKSYGSPSVQDTSSLATYGVMEDDPMLDDYVSESAVDSSALHTPKAKKQSDRTANLKGAALFSPASYTPQSAKRKAGLETPSNSVAGKPGDIVDTFGHPKLLAGSSWQSQMEHTVPVTQKLLHNDAPLTIANLGYMNDLLTDRCHNLRVRFNQTGPALVDKKLGQAGAAECIWYPQDRQVLQSAGGLHAVGMIHSEDDGPLDAHSAFMAVLDDDVEDEMDPTLTLNFSRVKSASIFPGQVVLAKGFIPRGKTFMVEEIHTERKLTPATPLQIDRELQFVVASGPFTDSTDLFYEPLHDLLKYLKDHRPDVLVLTGPFLDADHKMVGELAETFDTFFEKMIGGIMESIGSHTAVLVVTSQKDAMALSVYPTPPPALRRTYPNLYMLPDPSLVDLDGFTLGVTSTDVVDHLLSHEFAVNAGERMHRAINHLFHQGSFYPLYPPADEDMAYDSQLALKYAQLKQLPNVLILPSDQRHFIRLVNDCLVINPGRVADKKGGTFARFLVAPSVPGKAANMFNSVACQVQRI”, with “failed”.
